Experimental data from PMC9628201.

Biological target: SARS-CoV-2 WA.1 Spike-6P trimer (SARS-CoV-2 (WA.1))
Experiment: cryo-EM structure

## SARS-CoV-2 WA.1 Spike-6P trimer
  stoichiometry N: 3
